EC50, IC50 and EC90 data for 4 molecules are collected here from patent US12534531 (MacroGenics, dated 2026).

Assay [1] deals with T1, human LAG-3 expressed on NSO cells (human, UniProt P18627 29-525).
T1 sequence: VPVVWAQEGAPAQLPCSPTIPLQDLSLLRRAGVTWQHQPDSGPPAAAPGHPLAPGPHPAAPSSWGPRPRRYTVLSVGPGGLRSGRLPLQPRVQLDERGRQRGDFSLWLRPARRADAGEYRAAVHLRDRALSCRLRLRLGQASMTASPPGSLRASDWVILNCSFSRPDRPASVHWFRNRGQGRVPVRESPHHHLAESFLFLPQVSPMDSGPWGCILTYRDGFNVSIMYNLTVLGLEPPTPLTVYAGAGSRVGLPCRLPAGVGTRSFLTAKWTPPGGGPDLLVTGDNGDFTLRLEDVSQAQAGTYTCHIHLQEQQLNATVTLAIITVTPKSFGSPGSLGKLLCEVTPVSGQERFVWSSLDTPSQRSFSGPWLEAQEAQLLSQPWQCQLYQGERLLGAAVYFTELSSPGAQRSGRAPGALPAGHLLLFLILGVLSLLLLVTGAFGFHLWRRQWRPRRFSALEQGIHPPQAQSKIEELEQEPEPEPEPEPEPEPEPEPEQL
Put plainly: FACS saturation binding to NSO cells expressing LAG-3; single experiment.

Assay [2] has as its target T2, human PD-1 expressed on the surface of cells (NSO cells expressing human PD-1; MNFAT-luc2/PD-1 Jurkat cells) (human, UniProt Q15116 21-288).
T2 construct: also called cell surface PD-1; PDCD1 transfected NSO cells expressing PD-1
Put plainly: FACS: inhibition of sPD-L1 binding to PD-1 on NSO cells; SM; SD 0.1018.

The target of assay [3] is T2, human PD-1 expressed on the surface of …. Put plainly: FACS saturation binding to NSO cells expressing PD-1; single experiment.
Assay [4] addresses T3, biotinylated-soluble human LAG-3-Fc fusion protein (human, UniProt P18627 23-450, biotinylated (site not stated)).
T3 construct: whole entry named; also called shLAG-3; shLAG-3-Fc; not shown: Fc
T3 sequence: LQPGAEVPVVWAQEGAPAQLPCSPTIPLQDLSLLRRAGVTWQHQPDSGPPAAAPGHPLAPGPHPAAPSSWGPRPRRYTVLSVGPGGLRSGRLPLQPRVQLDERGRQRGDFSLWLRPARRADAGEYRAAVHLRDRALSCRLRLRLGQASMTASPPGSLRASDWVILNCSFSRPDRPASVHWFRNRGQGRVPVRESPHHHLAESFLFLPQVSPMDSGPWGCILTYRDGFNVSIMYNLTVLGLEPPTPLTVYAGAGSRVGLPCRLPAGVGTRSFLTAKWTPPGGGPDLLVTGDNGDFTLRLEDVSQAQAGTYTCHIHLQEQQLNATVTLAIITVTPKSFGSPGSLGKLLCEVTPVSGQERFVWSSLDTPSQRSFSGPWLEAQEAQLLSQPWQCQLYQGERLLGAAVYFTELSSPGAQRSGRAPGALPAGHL
Put plainly: FACS: inhibition of shLAG-3-Fc binding to MHC II on Daudi cells (column head prints EC50); SM; SD 4.9817.

The target in assay [5] is T2, human PD-1 expressed on the surface of …. As to the kind of experiment: FACS: inhibition of sPD-L2 binding to PD-1 on NSO cells; SM; SD 3.6847.
The target is the same in assay [6]. Put plainly: FACS: inhibition of sPD-L1 binding to PD-1 on NSO cells; SM; SD 0.3097.
Assay [7] has the same target. Put plainly: FACS: inhibition of sPD-L2 binding to PD-1 on NSO cells; SM; SD 0.5438.
Assay [8] has as its target T3, biotinylated-soluble human LAG-3-Fc …. Put plainly: FACS: inhibition of shLAG-3-Fc binding to MHC II on Daudi cells (column head prints EC50); SM; SD 0.0571.
Assay [9] has the same target. As to the kind of experiment: FACS: inhibition of shLAG-3-Fc binding to MHC II on Daudi cells (column head prints EC50); SM; SD 0.2176.
The target in assay [10] is T1, human LAG-3 expressed on NSO cells. As to the kind of experiment: FACS saturation binding to NSO cells expressing LAG-3; SM; SD 0.1969.
The target in assay [11] is T3, biotinylated-soluble human LAG-3-Fc …. As to the kind of experiment: FACS: inhibition of shLAG-3-Fc binding to MHC II on Daudi cells (column head prints EC50); SM; SD 0.1549.
Assay [12] addresses T2, human PD-1 expressed on the surface of …. Put plainly: FACS saturation binding to NSO cells expressing PD-1; SM; SD 0.4890.
Assay [13] has the same target. Put plainly: FACS: inhibition of sPD-L2 binding to PD-1 on NSO cells; SM; SD 0.3125.
Assay [14] has as its target T1, human LAG-3 expressed on NSO cells. Put plainly: FACS saturation binding to NSO cells expressing LAG-3; SM; SD 0.0547.
For assay [15], the target named is T2, human PD-1 expressed on the surface of …. Put plainly: FACS: inhibition of sPD-L1 binding to PD-1 on NSO cells; SM; SD 0.1302.

T2 sequence (Q15116 21-288): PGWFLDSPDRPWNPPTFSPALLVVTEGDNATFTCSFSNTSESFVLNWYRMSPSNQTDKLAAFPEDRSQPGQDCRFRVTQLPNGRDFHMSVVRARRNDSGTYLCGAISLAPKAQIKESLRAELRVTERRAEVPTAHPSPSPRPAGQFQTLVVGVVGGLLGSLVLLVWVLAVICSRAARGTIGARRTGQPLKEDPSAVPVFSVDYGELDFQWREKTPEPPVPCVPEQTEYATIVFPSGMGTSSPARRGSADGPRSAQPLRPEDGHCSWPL

B1: DART H (bispecific antibody)
chain 1: EIVLTQSPATLSLSPGERATLSCRASESVDNYGMSFMNWFQQKPGQPPKLLIHAASNQGSGVPSRFSGSGSGTDFTLTISSLEPEDFAVYFCQQSKEVPYTFGGGTKVEIKGGGSGGGGQVQLVQSGAEVKKPGASVKVSCKASGYTFTNYGMNWVRQAPGQGLEWMGWINTYTGESTYADDFEGRFVFSMDTSASTAYLQISSLKAEDTAVYYCARESLYDYYSMDYWGQGTTVTVSSGGCGGGEVAALEKEVAALEKEVAALEKEVAALEKGGGDKTHTCPPCPAPEAAGGPSVFLFPPKPKDTLMISRTPEVTCVVVDVSHEDPEVKFNWYVDGVEVHNAKTKPREEQYNSTYRVVSVLTVLHQDWLNGKEYKCKVSNKALPAPIEKTISKAKGQPREPQVYTLPPSREEMTKNQVSLWCLVKGFYPSDIAVEWESNGQPENNYKTTPPVLDSDGSFFLYSKLTVDKSRWQQGNVFSCSVMHEALHNHYTQKSLSLSPGK
chain 2: DIVMTQTPLSLSVTPGQPASISCKSSQSLLHSDAKTYLNWLLQKPGQPPERLIYLVSELDSGVPDRFSGSGSGTDFTLKISRVEAEDVGVYYCWQGTHFPYTFGGGTKVEIKGGGSGGGGQVQLVQSGAEVKKPGASVKVSCKASGYSFTSYWMNWVRQAPGQGLEWIGVIHPSDSETWLDQKFKDRVTITVDKSTSTAYMELSSLRSEDTAVYYCAREHYGTSPFAYWGQGTLVTVSSGGCGGGKVAALKEKVAALKEKVAALKEKVAALKE
chain 3: not shown
For B1, the EC50 in [1] is 2380 nM; in assay [3], 4.53 µM. The half-inhibitory concentration (IC50) in assay [2] was 3.4 µM; in assay [4], 2900 nM; in [5] it was 6.21 µM. In addition, in assay [3], the 90% effect level (EC90) was put at 22.7 µM.

B2: BSAB A (bispecific antibody)
heavy 1: QVQLVQSGAEVKKPGASVKVSCKASGYSFTSYWMNWVRQAPGQGLEWIGVIHPSDSETWLDQKFKDRVTITVDKSTSTAYMELSSLRSEDTAVYYCAREHYGTSPFAYWGQGTLVTVSSASTKGPSVFPLAPSSKSTSGGTAALGCLVKDYFPEPVTVSWNSGALTSGVHTFPAVLQSSGLYSLSSVVTVPSSSLGTQTYICNVNHKPSNTKVDKRVEPKSCEKTHTCPECPAPEAAGGPSVFLFPPKPKDTLMISRTPEVTCVVVDVSHEDPEVKFNWYVDGVEVHNAKTKPREEQYNSTYRVVSVLTVLHQDWLNGKEYKCKVSNKALPAPIEKTISKAKGQPREPQVYTLPPSREEMTKNQVSLTCEVKGFYPSDIAVEWESNGQPENNYKTTPPVLDSDGSFFLYSKLTVDKSRWQQGNVFSCSVMHEALHNHYTQKSLSLSPG
light 1: EIVLTQSPATLSLSPGERATLSCRASESVDNYGMSFMNWFQQKPGQPPKLLIHAASNQGSGVPSRFSGSGSGTDFTLTISSLEPEDFAVYFCQQSKEVPYTFGGGTKVEIKRTVAAPSVFIFPPSDEQLKSGTASVVCLLNNFYPREAKVQWKVDNALQSGNSQESVTEQDSKDSTYSLSSTLTLSKADYEKHKVYACEVTHQGLSSPVTKSFNRGEC
heavy 2: QVQLVQSGAEVKKPGASVKVSCKASGYTFTNYGMNWVRQAPGQGLEWMGWINTYTGESTYADDFEGRFVFSMDTSASTAYLQISSLKAEDTAVYYCARESLYDYYSMDYWGQGTTVTVSSASTKGPSVFPLAPSSKSTSGGTAALGCLVKDYFPEPVTVSWNSGALTSGVHTFPAVLQSSGLYSLSSVVTVPSSSLGTQTYICNVNHKPSNTKVDKRVEPKSCRKTHTCPRCPAPEAAGGPSVFLFPPKPKDTLMISRTPEVTCVVVDVSHEDPEVKFNWYVDGVEVHNAKTKPREEQYNSTYRVVSVLTVLHQDWLNGKEYKCKVSNKALPAPIEKTISKAKGQPREPQVYTLPPSREEMTKNQVSLTCLVKGFYPSDIAVEWESNGQPENNYKTTPPVLDSDGSFFLYSRLTVDKSRWQQGNVFSCSVMHEALHNHYTQKSLSLSPG
light 2: DIVMTQTPLSLSVTPGQPASISCKSSQSLLHSDAKTYLNWLLQKPGQPPERLIYLVSELDSGVPDRFSGSGSGTDFTLKISRVEAEDVGVYYCWQGTHFPYTFGGGTKVEIKRTVAAPSVFIFPPSDEQLKSGTASVVCLLNNFYPREAKVQWKVDNALQSGNSQESVTEQDSKDSTYSLSSTLTLSKADYEKHKVYACEVTHQGLSSPVTKSFNRGEC
As to B2, the half-inhibitory concentration (IC50) in [6] was determined as 2160 nM; in assay [7], 4.88 µM; in assay [8], 710 nM.

B3: hLAG-3 mAb 1 (1.4) IgG4 (P) (antibody, V domains shown)
VH: QVQLVQSGAEVKKPGASVKVSCKASGYTFTNYGMNWVRQAPGQGLEWMGWINTYTGESTYADDFEGRFVFSMDTSASTAYLQISSLKAEDTAVYYCARESLYDYYSMDYWGQGTTVTVSS
VL: DIVMTQTPLSLSVTPGQPASISCKSSQSLLHSDAKTYLNWLLQKPGQPPERLIYLVSELDSGVPDRFSGSGSGTDFTLKISRVEAEDVGVYYCWQGTHFPYTFGGGTKVEIK
Molecule B3 had an IC50 in assay [9] of 482 nM. The same molecule returned an EC50 in assay [10] of 1010 nM.

B4: DART I (bispecific antibody, human IgG4 S228P)
chain 1: DIQMTQSPSSLSASVGDRVTITCRASQDVSSVVAWYQQKPGKAPKLLIYSASYRYTGVPSRFSGSGSGTDFTLTISSLQPEDFATYYCQQHYSTPWTFGGGTKLEIKGGGSGGGGQVQLVQSGAEVKKPGASVKVSCKASGYSFTSYWMNWVRQAPGQGLEWIGVIHPSDSETWLDQKFKDRVTITVDKSTSTAYMELSSLRSEDTAVYYCAREHYGTSPFAYWGQGTLVTVSSGGCGGGEVAACEKEVAALEKEVAALEKEVAALEKESKYGPPCPPCPAPEFLGGPSVFLFPPKPKDTLYITREPEVTCVVVDVSQEDPEVQFNWYVDGVEVHNAKTKPREEQFNSTYRVVSVLTVLHQDWLNGKEYKCKVSNKGLPSSIEKTISKAKGQPREPQVYTLPPSQEEMTKNQVSLTCLVKGFYPSDIAVEWESNGQPENNYKTTPPVLDSDGSFFLYSRLTVDKSRWQEGNVFSCSVMHEALHNHYTQKSLSLSLG
chain 2: EIVLTQSPATLSLSPGERATLSCRASESVDNYGMSFMNWFQQKPGQPPKLLIHAASNQGSGVPSRFSGSGSGTDFTLTISSLEPEDFAVYFCQQSKEVPYTFGGGTKVEIKGGGSGGGGQVQLVQSGAEVKKPGASVKVSCKASGYTFTDYNMDWVRQAPGQGLEWMGDINPDNGVTIYNQKFEGRVTMTTDTSTSTAYMELRSLRSDDTAVYYCAREADYFYFDYWGQGTTLTVSSGGCGGGKVAACKEKVAALKEKVAALKEKVAALKE
On to B4, for which the IC50 in [11] came out at 486 nM; in assay [13] it was 1290 nM; in assay [15] it was 836 nM. The EC50 in [12] came out at 1320 nM; in [14], 532 nM.
